According to US20240317840A1 (Novartis, published 2024):
Where two headings read alike, the source gives them in different places.

How the values were obtained:
[1] = molecular target: HBsAg of HBV genotype C (DQ087960) (Hepatitis B virus); assay: sandwich ELISA, captured HBsAg from culture supernatant
Description: (§1) The binding of anti-HBsAg antibodies to the 4 major genotypes (A-D) of HBV were analyzed by sandwich ELISA.

[2] = molecular target: HBsAg of HBV genotype B (AF 121245) (Hepatitis B virus); assay: as above
Description: as §1

[3] = molecular target: T1, HBsAg of HBV genotype A (AY934772) (Hepatitis B virus); assay: as above
T1 construct: captured from supernatant by horse polyclonal anti-HBsAg
Description: as §1

[4] = molecular target: HBsAg clinical mutation T126S (Hepatitis B virus); assay: sandwich ELISA, mutant HBsAg from cell supernatant captured on horse polyclonal anti-HBsAg, antibody titrated, absorbance 450 nm
[5] = molecular target: HBsAg clinical mutation M133L (Hepatitis B virus); assay: as above
[6] = molecular target: HBsAg clinical mutation T126S (Hepatitis B virus); assay: sandwich ELISA, captured mutant HBsAg from culture supernatant;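 also: Anti-HBsAg antibodies tested for binding to mutant HBsAg secreted by stably transfected cell lines, supernatant incubated 1 h on antibody-coated plates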
Description: (§2) The binding of anti-HBsAg antibodies to 4 well characterized vaccine and/or HBsAg clinical mutations of HBsAg (G145R, D144A, T126S, M133L) were analyzed by sandwich ELISA. […] Supernatant collected from HBsAg cell-culture derived clinical mutation stables (G145R, D144A, T126S, M133L) was allowed to bind antibody coated plates for 1 hour.

[7] = molecular target: HBsAg clinical mutation M133L (Hepatitis B virus); assay: as above
Description: as §2

[8] = molecular target: HBsAg clinical mutation D144A (Hepatitis B virus); assay: as above
Description: as §2

[9] = molecular target: HBsAg clinical mutation G145R (Hepatitis B virus); assay: as above
Description: as §2

[10] = molecular target: HBsAg of HBV genotype D, serotype ayw (Hepatitis B virus); assay: cell-based or functional assay
[11] = molecular target: T2, HBsAg AY serotype (Hepatitis B virus); assay: SPR Biacore T200, HBsAg particles immobilized, antibody as analyte, 1:1 fit;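 also: Anti-HBsAg antibodies assessed for binding against both major HBsAg serotypes, AY and AD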
T2 construct: also called HBsAg serotype AY
Description: (§3) Binding affinity interaction (KD) of the anti-HBsAg antibodies with the two major serotypes of HBsAg, AY and AD, was determined utilizing surface plasma resonance (SPR) technology.

[12] = molecular target: T3, HBsAg AD serotype (Hepatitis B virus); assay: as above
T3 construct: also called HBsAg serotype AD
Description: as §3

[13] = molecular target: HBsAg clinical mutation T126S (Hepatitis B virus); assay: sandwich ELISA, mutant HBsAg from cell supernatant captured on horse polyclonal anti-HBsAg, antibody titrated, absorbance 450 nm; remark: listed apart in the source
[14] = molecular target: HBsAg clinical mutation D144A (Hepatitis B virus); assay: as above
[15] = molecular target: HBsAg clinical mutation T126S (Hepatitis B virus); assay: as above; remark: listed apart in the source
[16] = molecular target: HBsAg clinical mutation M133L (Hepatitis B virus); assay: as above; remark: listed apart in the source
[17] = molecular target: T2, HBsAg AY serotype; assay: SPR epitope binning; competitor (1st, saturating Ab): HBC34
Description: (§4) Epitope binning of anti-HBsAg antibodies with the two major serotypes of HBsAg, AY and AD, was performed utilizing surface plasmon resonance (SPR) technology. […] Each pair of antibodies was tested for blocking one another's binding to their epitope on the antigen by subsequently applying one antibody as first (saturating) followed by the other as second (competing) antibody and vice versa. Saturating antibodies were applied at 500 nM for 120s. Competing antibodies utilized the same conditions but were supplemented with the first antibody at 500 nM to maintain saturation. Binding signals were corrected by subtracting the reference cell signal. Specific binding of the competing antibody in presence of the saturating antibody was calculated by subtracting a saturating antibody plus buffer reference signal. All signals were normalized to 100 RU of immobilized ligand. The specific binding signal obtained from the application as competing antibody was expressed as percentage of the binding signal obtained from the application of the same antibody as saturating (first) antibody, the signal of which was regarded 100% binding.

[18] = molecular target: T3, HBsAg AD serotype; assay: as above
Description: as §4

[19] = molecular target: T2, HBsAg AY serotype; assay: SPR epitope binning; competitor (1st, saturating Ab): CR8087
Description: as §4

[20] = molecular target: T3, HBsAg AD serotype; assay: as above
Description: as §4

[21] = molecular target: HBsAg clinical mutation T126S (Hepatitis B virus); assay: sandwich ELISA, mutant HBsAg from cell supernatant captured on horse polyclonal anti-HBsAg, antibody titrated, absorbance 450 nm; remark: listed apart in the source
[22] = molecular target: HBsAg clinical mutation M133L (Hepatitis B virus); assay: as above; remark: listed apart in the source
[23] = molecular target: HBsAg clinical mutation D144A (Hepatitis B virus); assay: as above; remark: listed apart in the source
[24] = molecular target: HBsAg clinical mutation G145R (Hepatitis B virus); assay: as above
[25] = molecular target: HBsAg clinical mutation T126S (Hepatitis B virus); assay: as above; remark: listed apart in the source
[26] = molecular target: HBsAg clinical mutation M133L (Hepatitis B virus); assay: as above; remark: listed apart in the source
[27] = molecular target: HBsAg clinical mutation T126S (Hepatitis B virus); assay: as above; remark: listed apart in the source
[28] = molecular target: HBsAg clinical mutation M133L (Hepatitis B virus); assay: as above; remark: listed apart in the source

Binder	IC50 [1]	IC50 [2]	IC50 [3]	IC50 [6]	IC50 [7]	IC50 [8]	IC50 [9]	Virus neutralization EC50 [10]	Kd [11]	Kd [12]	also measured
NOV2603 (antibody, human IgG1, kappa, V domains shown, Full human IgG1 (kappa) expressed in CHO cells) VH: QVQLVQSGAEVKKPGASVKVSCKASGYTFTSYYMHWVRQAPGQGLEWMGIISPSGGSTSYAQKFQGRVTMTRDTSTSTVYMELSSLRSEDTAVYYCARDWEGGDPYGYYYAFDYWGQGTLVTVSS VL: not shown	3.6 nM	1.5 nM	2.3 nM	0.06 nM	0.072 nM	1.34 nM	0.33 nM	0.14 nM	3.1 nM	15.5 nM	EC50 (read off the curve) [4]: ~0.06 nM; EC50 (read off the curve) [5]: ~0.07 nM
NOV3836 (antibody, human IgG1, kappa, V domains shown) VH: QVQLVESGGGVVQPGRSLRLSCAASGFTFERYGMHWVRQAPGKGLEWVAGIWHEGSHKYYADSLRGRFTISRDNAKNTLDLQLNRLRAEDTSVYYCVRQTNRGRLDDAFDIWGQGTMVTVSS VL: DIQMTQSPSSLSAAVGDRVTISCRASQTISSYLNWYQQKPGEAPKLLIYAASTLQSGVPSRFGGSGSGTDFTLTISSLQPEDSATYYCQQNYDTLWTFGQGTKVEIKR	–	–	–	–	–	–	–	0.017 nM	–	–	–
NOV3212 (antibody, human IgG1, kappa, V domains shown, Full human IgG1 (kappa) expressed in CHO cells) VH: QVQLVQSGAEVKKPGASVKVSCKASGYTFTSLEMHWVRQAPGQGLEWMGIIEPSGGSTSYAQKFQGRVTMTRDTSTSTVYMELSSLRSEDTAVYYCARDWEGGDPYGYYYAFDYWGQGTLVTVSS VL: not shown	0.068 nM	0.045 nM	0.23 nM	0.012 nM	0.012 nM	0.079 nM	0.033 nM	0.11 nM	0.6 nM	1.1 nM	EC50 (read off the curve) [13]: ~0.02 nM; EC50 (read off the curve) [14]: ~0.1 nM
NOV3357 (antibody, human IgG1, kappa, V domains shown, Full human IgG1 (kappa) expressed in CHO cells) VH: EVQLLESGGGLVQPGGSLRLSCAASGFTFSPHAMSWVRQAPGKGLEWVSAISDSGGSTHYADSVKGRFTISRDNSKNTLYLQMNSLRAEDTAVYYCARDDDGWSGYDYWFDYWGQGTLVTVSS VL: DIQMTQSPSSLSASVGDRVTITCRASQSISPYLNWYQQKPGKAPKLLIYAADSLQSGVPSRFSGSGSGTDFTLTISSLQPEDFATYYCQQSYKIPLTFGQGTKVEIKR	0.016 nM	0.017 nM	0.03 nM	0.22 nM	0.67 nM	2.1 nM	5.5 nM	0.056 nM	0.11 nM	0.18 nM	EC50 (read off the curve) [15]: ~0.1 nM; EC50 (read off the curve) [16]: ~0.1 nM
NOV3540 (antibody, human IgG1, kappa, V domains shown, Full human IgG1 (kappa) expressed in CHO cells) VH: EVQLLESGGGLVQPGGSLRLSCAASGFTFSPHAMSWVRQAPGKGLEWVSAISDSGGSTHYADSVKGRFTISRDNSKNTLYLQMNSLRAEDTAVYYCARDDDAWSGYDYWFDYWGQGTLVTVSS VL: DIQMTQSPSSLSASVGDRVTITCRASQSISPYLNWYQQKPGKAPKLLIYAADSLQSGVPSRFSGSGSGTDFTLTISSLQPEDFATYYCQQSYKIPLTFGQGTKVEIKR	0.1 nM	0.059 nM	0.1 nM	0.063 nM	0.091 nM	0.16 nM	0.25 nM	0.085 nM	0.25 nM	0.39 nM	binding of second antibody [17]: 102 % of its binding as first antibody; binding of second antibody [18]: 111 % of its binding as first antibody; binding of second antibody [19]: 118 % of its binding as first antibody; binding of second antibody [20]: 254 % of its binding as first antibody; EC50 (read off the curve) [21]: ~0.08 nM; EC50 (read off the curve) [22]: ~0.08 nM; EC50 (read off the curve) [23]: ~0.2 nM; EC50 (read off the curve) [24]: ~0.3 nM
NOV3831 (antibody, human IgG1, lambda, V domains shown, Full human IgG1 (lambda) expressed in CHO cells) VH: EMQVLESGGGLVQPGGSLRLSCAASGFTFNNYAMSWVRQVPGKGLEWVSSISGSGGSTYYADSVKGQFTISRDNSKNTLYLQMNSLRAEDTAVYYCAKSSILSGGHARVYGIDVWGQGTTVTVSS VL: QSALTQPPSVSVAPGQTARITCGGNNIGSQSVHWYQQKPGQAPILVVYDDTDRPSGIPARFSGSSSGSTATLTIGRVEAGDEADYYCQVWDSSSDHVVFGGGTKLTVLS	0.031 nM	0.015 nM	0.69 nM	0.0093 nM	0.0058 nM	3.6 nM	> 67 nM	0.026 nM	0.59 nM	0.67 nM	EC50 (read off the curve) [25]: ~0.02 nM; EC50 (read off the curve) [26]: ~0.02 nM
NOV3832 (antibody, human IgG1, lambda, V domains shown, Full human IgG1 (lambda) expressed in CHO cells) VH: EMQVLESGGGLVQPGGSLRLSCAASGFTFDNYAMSWVRQVPGKGLEWVSSISGSGGSTYYADSVKGQFTISRDNSKNTLYLQMNSLRAEDTAVYYCAKSSILSGGHARVYGIDVWGQGTTVTVSS VL: QSALTQPPSVSVAPGQTARITCGGNNIGSQSVHWYQQKPGQAPILVVYDDTDRPSGIPARFSGSSSGSTATLTIGRVEAGDEADYYCQVWDSSSDHVVFGGGTKLTVLS	0.015 nM	0.02 nM	0.05 nM	0.034 nM	0.034 nM	0.99 nM	> 67 nM	0.26 nM	0.4 nM	0.22 nM	binding of second antibody [17]: 113 % of its binding as first antibody; binding of second antibody [18]: 176 % of its binding as first antibody; EC50 (read off the curve) [27]: ~0.05 nM; EC50 (read off the curve) [28]: ~0.05 nM; binding of second antibody [19]: 117 % of its binding as first antibody; binding of second antibody [20]: 223 % of its binding as first antibody
NOV3834 (antibody, human IgG1, kappa, V domains shown, Full human IgG1 (kappa) expressed in CHO cells) VH: QVQLVESGGGVVQPGRSLRLSCAASGFTFNRYGMHWVRQAPGKGLEWVAGIWHDGSHKYYADSLRGRFTISRDNAKNTLDLQLNRLRAEDTSVYYCVRQTNRGRLDDAFDIWGQGTMVTVSS VL: DIQMTQSPSSLSAAVGDRVTISCRASQTISSYLNWYQQKPGEAPKLLIYAASTLQSGVPSRFGGSGSGTDFTLTISSLQPEDSATYYCQQNYDTLWTFGQGTKVEIKR	16 nM	1.2 nM	2 nM	7.4 nM	9.2 nM	–	–	0.24 nM	5.3 nM	40 nM	–
NOV3835 (antibody, human IgG1, kappa, V domains shown) VH: QVQLVESGGGVVQPGRSLRLSCAASGFTFDRYGMHWVRQAPGKGLEWVAGIWHEGSHKYYADSLRGRFTISRDNAKNTLDLQLNRLRAEDTSVYYCVRQTNRGRLDDAFDIWGQGTMVTVSS VL: DIQMTQSPSSLSAAVGDRVTISCRASQTISSYLNWYQQKPGEAPKLLIYAASTLQSGVPSRFGGSGSGTDFTLTISSLQPEDSATYYCQQNYDTLWTFGQGTKVEIKR	–	–	–	–	–	–	–	0.72 nM	–	–	–
